Experimental data: patent US20220281980A1 (Bristol-Myers Squibb, published 2022)

T1: recombinant soluble human MICA*008 antigen (human, UniProt Q29983 24-307)
T1 construct: also called huIMICA-his allele *008; recombinant soluble MICA (allele 8)
T1 chain: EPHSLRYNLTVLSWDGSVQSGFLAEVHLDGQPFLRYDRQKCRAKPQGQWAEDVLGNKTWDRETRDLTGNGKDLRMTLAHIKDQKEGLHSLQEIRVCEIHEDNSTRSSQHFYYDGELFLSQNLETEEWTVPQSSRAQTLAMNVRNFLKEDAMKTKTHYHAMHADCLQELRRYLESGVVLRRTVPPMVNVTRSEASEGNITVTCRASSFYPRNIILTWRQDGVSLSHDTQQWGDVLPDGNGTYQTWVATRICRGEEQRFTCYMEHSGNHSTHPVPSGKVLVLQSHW

T2: human MICB expressed on transduced cells (human, UniProt Q29980 23-382)
T2 construct: also called MICB*005
T2 chain: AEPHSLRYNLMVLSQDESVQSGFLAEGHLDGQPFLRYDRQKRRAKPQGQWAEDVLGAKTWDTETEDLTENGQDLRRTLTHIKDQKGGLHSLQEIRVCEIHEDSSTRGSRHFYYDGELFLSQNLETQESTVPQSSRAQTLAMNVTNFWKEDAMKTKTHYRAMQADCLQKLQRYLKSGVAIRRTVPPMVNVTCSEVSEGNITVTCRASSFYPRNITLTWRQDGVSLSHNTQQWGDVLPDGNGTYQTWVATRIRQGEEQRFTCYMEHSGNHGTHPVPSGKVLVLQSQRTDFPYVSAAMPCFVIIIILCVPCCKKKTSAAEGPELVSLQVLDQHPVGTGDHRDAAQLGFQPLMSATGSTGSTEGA

T3: human MICA*010 expressed on CHO cells (human, UniProt Q29983 24-383)
T3 construct: also called MICA allele 010
T3 chain: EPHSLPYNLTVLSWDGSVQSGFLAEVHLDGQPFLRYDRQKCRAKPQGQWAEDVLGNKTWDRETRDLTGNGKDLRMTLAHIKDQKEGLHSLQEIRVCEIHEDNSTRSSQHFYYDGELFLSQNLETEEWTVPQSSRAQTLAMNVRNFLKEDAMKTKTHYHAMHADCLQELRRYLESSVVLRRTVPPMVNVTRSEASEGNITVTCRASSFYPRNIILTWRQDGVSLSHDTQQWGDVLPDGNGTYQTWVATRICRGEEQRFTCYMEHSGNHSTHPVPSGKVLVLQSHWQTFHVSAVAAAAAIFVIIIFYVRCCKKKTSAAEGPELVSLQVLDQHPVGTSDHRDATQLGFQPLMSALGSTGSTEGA

T4: human MICA*009 expressed on CHO cells (human, UniProt Q29983 24-382)
T4 construct: also called MICA allele 009
T4 chain: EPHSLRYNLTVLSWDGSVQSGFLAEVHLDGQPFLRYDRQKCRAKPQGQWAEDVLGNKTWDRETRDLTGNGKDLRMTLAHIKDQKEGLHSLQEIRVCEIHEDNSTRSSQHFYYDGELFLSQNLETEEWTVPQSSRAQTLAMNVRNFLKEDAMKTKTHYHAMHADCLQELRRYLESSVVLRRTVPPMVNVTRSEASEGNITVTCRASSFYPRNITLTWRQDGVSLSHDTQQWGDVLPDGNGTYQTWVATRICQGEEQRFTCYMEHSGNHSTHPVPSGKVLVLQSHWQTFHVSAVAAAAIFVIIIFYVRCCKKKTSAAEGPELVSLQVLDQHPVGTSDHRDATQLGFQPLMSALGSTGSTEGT

T5: human MICA*004 expressed on CHO cells (human, UniProt Q29983 24-383)
T5 construct: also called MICA allele 004
T5 chain: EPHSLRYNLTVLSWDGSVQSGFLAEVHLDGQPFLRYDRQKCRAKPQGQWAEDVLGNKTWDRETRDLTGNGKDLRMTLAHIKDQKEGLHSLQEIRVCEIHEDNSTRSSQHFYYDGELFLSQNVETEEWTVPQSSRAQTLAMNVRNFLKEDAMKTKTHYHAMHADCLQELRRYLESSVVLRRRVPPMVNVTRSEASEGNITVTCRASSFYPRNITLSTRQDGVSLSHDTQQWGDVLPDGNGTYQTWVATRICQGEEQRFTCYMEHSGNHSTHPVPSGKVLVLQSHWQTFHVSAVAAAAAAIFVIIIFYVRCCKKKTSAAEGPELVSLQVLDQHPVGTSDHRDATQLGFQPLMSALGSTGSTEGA

T6: human MICA*008 expressed on CHO cells (human, UniProt Q29983 24-331)
T6 construct: also called MICA allele 008
T6 chain: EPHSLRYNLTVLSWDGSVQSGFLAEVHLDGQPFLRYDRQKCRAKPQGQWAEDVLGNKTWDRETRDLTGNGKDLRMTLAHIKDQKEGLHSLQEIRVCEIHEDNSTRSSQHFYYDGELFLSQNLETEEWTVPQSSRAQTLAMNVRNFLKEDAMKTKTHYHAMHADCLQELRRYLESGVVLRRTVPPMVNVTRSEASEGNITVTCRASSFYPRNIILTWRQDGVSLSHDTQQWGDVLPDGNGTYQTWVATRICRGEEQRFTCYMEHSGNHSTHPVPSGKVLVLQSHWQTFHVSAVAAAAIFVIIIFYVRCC


Columns and labels:
[1] = molecular target: T1, recombinant soluble human MICA*008 …; assay: BLI (Octet) sandwich binning on soluble MICA allele 8, row antibody captured; competitor (second antibody): MICA.40
Method: The binning experiments were performed on an Octet HTX instrument at 25° C. in HEPES buffered saline (10 mM HEPES pH 7.4, 150 mM NaCl, 0.05% v/v surfactant P20, and 1 mg/mL BSA). Anti-MICA/B antibodies and NKG2D-mFc were captured on anti-Fc tips and remaining capture sites were blocked with an excess of negative control IgG. Recombinant soluble MICA (allele 8) was bound and subsequent binding (“sandwiching”) of anti-MICA/B antibodies was tested.

[2] = molecular target: T2, human MICB expressed on transduced cells; assay: flow cytometry, transfected CHO cells
[3] = molecular target: T3, human MICA*010 expressed on CHO cells; assay: flow cytometry, transfected CHO cells
[4] = molecular target: T4, human MICA*009 expressed on CHO cells; assay: flow cytometry, transfected CHO cells
[5] = molecular target: T7, cynomolgus monkey MICA/B clone #6 expressed on CHO cells (cynomolgus monkey); assay: flow cytometry, transfected CHO cells
T7 construct: whole, on cells; also called cyno#6; CHO-cyno MICA clone #6

[6] = molecular target: T5, human MICA*004 expressed on CHO cells; assay: flow cytometry, transfected CHO cells
[7] = molecular target: T6, human MICA*008 expressed on CHO cells; assay: flow cytometry, transfected CHO cells

Row | Binder | simultaneous binding (0 = no, 1 = yes) [1] | EC50 [2] | EC50 [3] | EC50 [4] | EC50 [5] | EC50 [6] | EC50 [7]
1 | MICA.36 (antibody, V domains shown, it says that the name implies no specific constant region; Radioiodinated in the Scatchard assay; also called MICA.36 antibody) VH: QVQLVESGGGVVQPGRSLRLSCAASGFTFSNYAMHWVRQAPGEGLEWVALIWYDGSNKFYGDSVKGRFTISRDNSKNTLYLQMNSLSAEDTAVYYCAREGSGHYWGQGTLVTVSS VL: AIQLTQSPSSLSASVGDRVTITCRASQGISSALAWYQQKPGKVPKSLIYDASSLESGVPSRFSGSGSGTDFTLTISSLQPEDFATYYCQQFNSYPITFGQGTRLEIK | 1 |  |  |  |  |  | 
2 | 19G6 (antibody, V domains shown, Hybridoma antibody from human IgG transgenic mice, parent of MICA.36; also called 19G6 mAb; hybridoma 19G6) VH: QVQLVESGGGVVQPGRSLRLSCAASGFTFSNYAMHWVRQAPGEGLEWVALIWYDGSNKFYGDSVKGRFTISRDNSKNTLYLQMNSLSAEDTAVYYCAREGSGHYWGQGTLVTVSS VL: AIQLTQSPSSLSASVGDRVTITCRASQGISSALAWYQQKPGKVPKSLIYDASSLESGVPSRFSGSGSGTDFTLTISSLQPEDFATYYCQQFNSYPITFGQGTRLEIK |  | 1.83 nM | 18.5 nM | 8.21 nM | 22 nM | 11.4 nM | 9.23 nM
3 | MICA.2 (antibody, human IgG1, kappa, V domains shown, 3F5 variable regions on human IgG1f and human kappa constant regions, made in CHO-S cells; also called 3F5; recombinant antibody of 3F5) VH: EVQLVESGGGLVQPGGSLRLSCAASGFTFSTYSMNWVRQAPGKGLEWVSYISYRSRTIYYADSVKGRFTISRDNARNSLYLQMNSLRDEDTAVYYCARWGYGSGGFDYWGQGTLVTVSS VL: not shown | 0 | 6 nM | 6.91 nM | 1.56 nM | 4.01 nM | 2.94 nM | 2.14 nM
4 | 24G11 (antibody, V domains shown, also called MICA.54; 24G11 (MICA.54)) VH: EVQLVQSGAEVKKPGESLKISCKGSGYSFTNYWIGWVRQMPGKGLEWLGIIHPGDSYTRYSPSFQGQVTISADKSISTAYLQWSSLKASDTAIYYCAREGIAATPFDYWGQGTLVTVSS VL: EIVLTQSPATLSLSPGERATLSCRASQSVSSYLAWFQQKPGQAPRLLIYDASNRATGIPARFSGSGSGTDFTLTISSLEPEDFAVYYCQQRSNWPPTFGQGTKVEIK | 1 | 262 nM | 722 nM | 497 nM | 331 nM | 518 nM | 248 nM
5 | 71C2 (antibody, V domains shown, Hybridoma antibody) VH: EVQLVESGGGLVQPGRSLRLSCAASGFTFNNYAMHWVRQAPGKGLEWVSGITWNSDSIGYADSVKGRFTISRDNAKNSLYLQMNSLRAEDTALYYCAKDSVLLWFGGMDVWGQGTTVTVSS VL: not shown |  | 9.81 nM | 80 nM | 10.2 nM | 232 nM | 26.2 nM | 10 nM
